Tests used:
human CD44 (human) [1] = target: human CD44 (human) (UniProt P16070); assay: cell-based or functional assay
human CD44 (human) [2] = target: human CD44 (human) (UniProt P16070); assay: flow cytometry, Alexa647-RG7356 on CD19+CD5+ CLL B cells (n=59)
human CD44 (human) [3] = target: human CD44 (human) (UniProt P16070); assay: flow cytometry, Alexa647-RG7356 on CLL B cells with ZAP-70 expression
human CD44 (human) [4] = target: human CD44 (human) (UniProt P16070); assay: flow cytometry, Alexa647-RG7356 on CLL B cells with mutated IGVH gene
human CD44 (human) [5] = target: human CD44 (human) (UniProt P16070); assay: flow cytometry, Alexa647-RG7356 on CLL B cells with unmutated IGVH gene
human CD44 (human) [6] = target: human CD44 (human) (UniProt P16070); assay: flow cytometry, Alexa647-RG7356 on CD19+ normal B cells of healthy adults (n=8)
human CD44 (human) [7] = target: human CD44 (human) (UniProt P16070); assay: flow cytometry, Alexa647-RG7356 on CLL B cells with low or no ZAP-70 expression

humanized anti-CD44 monoclonal antibody (RG7356, Roche)
internalization of cell surface CD44 (reduction of MFI of Alexa647-conjugated RG7356 on CLL cells at 37 C, flow cytometry) (human CD44 (human) [1]): > 40%
median MFIR (MFI of CD44 mAb divided by MFI of control mAb) (human CD44 (human) [2]): 132
median MFIR (MFI of CD44 mAb divided by MFI of control mAb) (human CD44 (human) [3]): 161
median MFIR (MFI of CD44 mAb divided by MFI of control mAb) (human CD44 (human) [4]): 118
median MFIR (MFI of CD44 mAb divided by MFI of control mAb) (human CD44 (human) [5]): 161
median MFIR (MFI of CD44 mAb divided by MFI of control mAb) (human CD44 (human) [6]): 112
median MFIR (MFI of CD44 mAb divided by MFI of control mAb) (human CD44 (human) [7]): 119

— US20140308301A1
